Our source for the unfolding free energy values is FireProtDB (doi:10.1021/bi00066a003).

The conditions of the series: Geobacillus stearothermophilus, pH 7.5, 25 °C, Fluorescence, TEA 50 mM, reversible: yes, whole UniProt chain shown.

B1: Phosphoglycerate kinase wild type, P18912 (protein)
chain: MNKKTIRDVDVRGKRVFCRVDFNVPMEQGAITDDTRIRAALPTIRYLIEHGAKVILASHLGRPKGKVVEELRLDAVAKRLGELLERPVAKTNEAVGDEVKAAVDRLNEGDVLLLENVRFYPGEEKNDPELAKAFAELADLYVNDAFGAAHRAHASTEGIAHYLPAVAGFLMEKELEVLGKALSNPDRPFTAIIGGAKVKDKIGVIDNLLEKVDNLIIGGGLAYTFVKALGHDVGKSLLEEDKIELAKSFMEKAKEKGVRFYMPVDVVVADRFANDANTKVVPIDAIPADWSALDIGPKTRELYRDVIRESKLVVWNGPMGVFEMDAFAHGTKAIAEALAEALDTYSVIGGGDSAAAVEKFGLADKMDHISTGGGASLEFMEGKQLPGVVALEDK
As for B1, the unfolding free energy reads like this: (GdnHCl) 4.35 kcal/mol; (Urea) 4.21 kcal/mol.
